How the values were obtained:
Details in all cases: both partners purified
[1] = target: T1, S65-phosphorylated ubiquitin (human, UniProt P0CG48 1-76, phosphoserine at 65); assay: NMR CPMG relaxation dispersion; 15N-labeled Ubqln2-UBA 300 uM with 32 uM unlabeled pUb (~10% saturation); 20 mM HEPES, 150 mM NaCl, pH 7.4; two magnetic fields, global fit; kon and koff calculated from kex and the KD
T1 construct: ubiquitin, human; the cut product of the ubiquitin precursor; phosphorylated at S65 by PINK1; One chemical species that exchanges slowly between two conformations, pUbRL and pUbRT; The printed KD, kon and koff are defined for the pUbRL state; 15N-labelled or unlabelled, depending on the experiment; also called pUb; pUbRL (C-terminally relaxed conformation); source: E. coli BL21 star, purified; …

[2] = target: T1, S65-phosphorylated ubiquitin; assay: NMR CPMG relaxation dispersion; 15N-labeled Ubqln2-UBA 300 uM with 228 uM unlabeled pUb (~50% saturation); 20 mM HEPES, 150 mM NaCl, pH 7.4; two magnetic fields, global fit; kon and koff calculated from kex and the KD
[3] = target: T2, Human ubiquitin (unmodified) (human, UniProt P0CG48 1-76); assay: NMR titration; 1H-15N HSQC; 100 uM 15N-labeled Ub or pUb titrated with unlabeled UBA (22.7 to 340.4 uM); 20 mM HEPES, 150 mM NaCl, pH 7.4, 25 C; CSPs of pUb fitted with the revised model of coupled pUbRL/pUbRT equilibria (KD is for pUbRL), CSPs of Ub with a simple one-site model
T2 construct: ubiquitin, human; the cut product of the ubiquitin precursor; cloned into pET11a; 15N-labelled in the NMR titrations; also called unmodified Ub; source: E. coli BL21 star, purified (Sepharose SP, Sephacryl S100)

[4] = target: T1, S65-phosphorylated ubiquitin; assay: as above

koff [1] [s⁻¹]	kon [1] [M⁻¹ s⁻¹]	koff [2] [s⁻¹]	kon [2] [M⁻¹ s⁻¹]	Kd [3] [µM]	Kd [4] [µM]	Binder
293 ± 27.5	6.8e+06 ± 600000	678 ± 61	1.56e+07 ± 1.4e+06	33 ± 3.7	43.3 ± 3.6	PEVRFQQQLEQLNAMGFLNREANLQALIATGGDINAAIERLLGS (domain or fragment, UniProt Q9UHD9 578-621, looked up, Ubiquilin-2 (Ubqln2), human, UBA domain, residues 578 to 621; synthetic gene with optimized codons in pET11a; 15N- or 15N/13C-labelled in some experiments; also called UBA domain from Ubqln2; Ubiqulin-2 UBA; source: E. coli BL21 (DE3), purified (Ni-NTA, Sephacryl S100; TEV cleavage, second Ni-NTA, Sephacryl S100); not shown: thioredoxin, N-terminal, cleaved; His6, N-terminal, cleaved) [Human Ubqln2-UBA (residues 578 to 621)]
				356 ± 56	404 ± 38.8	Human Rad23A-UBA2 (residues 315 to 363) (domain or fragment, UV excision repair protein Rad23A, human, second UBA domain (UBA2), residues 315 to 363; synthetic gene with optimized codons in pET11a; 15N-labelled in the CPMG experiment; also called Rad23-UBA2; second UBA domain (UBA2) from Rad23A; source: E. coli BL21 (DE3), purified (Ni-NTA, Sephacryl S100; TEV cleavage, second Ni-NTA, Sephacryl S100); not shown: thioredoxin, N-terminal, cleaved; His6, …) not shown
